Values quoted from earlier work as cited in patent publication US20220023273A1, “METHODS FOR TREATING SYMPTOMS AND DISORDERS ASSOCIATED WITH LYSOSOMAL STORAGE DISEASES” (GENZYME CORPORATION, priority 2019, published 2022).

Test system: plasma GL-3
Conditions: after 156 weeks; matched historical phase 3 trial patients treated with agalsidase beta; cited from earlier work

B1: agalsidase beta: semisynthetic enzyme agalsidase beta (alpha-galactosidase), enzyme replacement therapy for Fabry disease (protein, UniProt P06280 32-429, looked up)
Alpha-galactosidase A: LDNGLARTPTMGWLHWERFMCNLDCQEEPDSCISEKLFMEMAELMVSEGWKDAGYEYLCIDDCWMAPQRDSEGRLQADPQRFPHGIRQLANYVHSKGLKLGIYADVGNKTCAGFPGSFGYYDIDAQTFADWGVDLLKFDGCYCDSLENLADGYKHMSLALNRTGRSIVYSCEWPLYMWPFQKPNYTEIRQYCNHWRNFADIDDSWKSIKSILDWTSFNQERIVDVAGPGGWNDPDMLVIGNFGLSWNQQVTQMALWAIMAAPLFMSNDLRHISPQAKALLQDKDVIAINQDPLGKQGYQLRQGDNFEVWERPLSGLAWAVAMINRQEIGGPRSYTIAVASLGKGVACNPACFITQLLPVKRKLGFYEWTSRLRSHINPTGTVLLQLENTMQMSLKDLL
In the case of B1, the “Plasma GL-3 levels” value is listed as 4.44 µg/mL.
